Paper PMC9020658, “Mechanism of RNA polymerase I selection by transcription factor UAF”

Experiments:
[1] = biological target: T1, UAF (Rrn5-Rrn9-Rrn10-Uaf30-H3-H4) (Saccharomyces cerevisiae? (budding …, UniProt Q02983;P53437;P38204;Q08747;P61830;P02309 1-363;1-365;1-145;1-228;1-136;1-103)); experiment: filter binding; fitted Kd only in figure; legend order of the DNAs appears swapped; 30 mM Hepes-NaOH pH 7.5, 30 mM sodium citrate pH 6.0, 250 mM KCl, 2 mM DTT; filter binding 1 h at 4 C; footprinting on ice, then 2.5 mM MgCl2, 0.5 mM CaCl2, DNa
[2] = biological target: T1, UAF (Rrn5-Rrn9-Rrn10-Uaf30-H3-H4); experiment: filter binding; two repeats; text assigns tight Kd to -110/-40, fig. S7 legend order of the DNAs appears swapped; 30 mM Hepes-NaOH pH 7.5, 30 mM sodium citrate pH 6.0, 250 mM KCl, 2 mM DTT; filter binding 1 h at 4 C; footprinting on ice, then 2.5 mM MgCl2, 0.5 mM CaCl2, DNa

B1: DNA-180/-110 (upstream) (dsDNA)
DNA 1: ATATACGCTAAGATTTTTGGAGAATAGCTTAAATTGAAGTTTTTCTCGGCGAGAAATACGTAGTTAAGGCA
DNA 2: TGCCTTAACTACGTATTTCTCGCCGAGAAAAACTTCAATTTAAGCTATTCTCCAAAAATCTTAGCGTATAT
- fold decrease in affinity [1]: ~5 fold lower affinity than DNA-110/-40

B2: DNA-110/-40 (downstream) (dsDNA)
DNA 1: AGAGCGACAGAGAGGGCAAAAGAAAATAAAAGTAAGATTTTAGTTTGTAATGGGAGGGGGGGTTTAGTCAT
DNA 2: ATGACTAAACCCCCCCTCCCATTACAAACTAAAATCTTACTTTTATTTTCTTTTGCCCTCTCTGTCGCTCT
- Kd [2]: 20.4 nM
